Results taken from patent US6613746.

How the values were obtained:
[1] = biological target: ELAM-Rg, soluble ELAM-1-IgG1 chimera (ELAM-1 extracellular domain fused to hinge, CH2 and CH3 domains of human IgG1) (human) (UniProt P16581); experiment: inhibition of adhesion of myeloid HL60 cells to immobilized ELAM-1, fusion protein at about 50 µg/ml
[2] = biological target: ELAM-Rg, soluble ELAM-1-IgG1 chimera (ELAM-1 extracellular domain fused to hinge, CH2 and CH3 domains of human IgG1) (human) (UniProt P16581); experiment: inhibition of adhesion of human T lymphocytes to immobilized ELAM-1, fusion protein at about 50 µg/ml

Sequence of ELAM-Rg, soluble ELAM-1-IgG1 chimera (ELAM-1 extracellular domain fused to hinge, CH2 and CH3 domains of human IgG1) (human) (P16581 22-556 limits assumed, stated change not applied): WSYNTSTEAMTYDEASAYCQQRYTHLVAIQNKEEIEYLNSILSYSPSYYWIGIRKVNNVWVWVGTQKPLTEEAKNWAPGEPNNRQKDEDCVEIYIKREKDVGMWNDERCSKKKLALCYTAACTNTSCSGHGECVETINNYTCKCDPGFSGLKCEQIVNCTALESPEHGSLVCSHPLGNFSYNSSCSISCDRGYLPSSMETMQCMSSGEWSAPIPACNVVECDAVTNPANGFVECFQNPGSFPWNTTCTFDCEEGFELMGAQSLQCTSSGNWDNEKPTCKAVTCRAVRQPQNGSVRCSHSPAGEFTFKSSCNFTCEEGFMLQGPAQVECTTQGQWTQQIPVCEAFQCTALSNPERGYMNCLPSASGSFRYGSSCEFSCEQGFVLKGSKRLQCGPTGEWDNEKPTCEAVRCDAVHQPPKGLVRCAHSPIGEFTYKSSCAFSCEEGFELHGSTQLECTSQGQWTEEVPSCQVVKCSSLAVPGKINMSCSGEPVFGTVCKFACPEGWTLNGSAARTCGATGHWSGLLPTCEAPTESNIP

inhibition of adhesion [1]: > 50%
inhibition of adhesion [2]: > 50%
Substance: α1-AGP-IgG1 fusion protein (α1-AGP-Hinge-CH2-CH3) produced in COS cells (Fc fusion)
